Source: patent US20220119534A1 (DRAGONFLY THERAPEUTICS, published 2022)
Values joined by “and” are separate entries in the source; they are usually repeats but may differ in a detail not shown here. Equal entries are not always repeated.

Tests used:
mFc-cNKG2D = molecular target: T1, mFc-cNKG2D (cynomolgus monkey, UniProt P61252 73-216); experiment: SPR Biacore 37 C; mFc-tagged cyno NKG2D dimer, TriNKET as analyte; 1:1 kinetic fit
T1 construct: extracellular domain; Made in house (Dragonfly Tx); also called recombinant cyno NKG2D extracellular domain (ECD); mFc-tagged cyno NKG2D dimer; not shown: mouse Fc tag
T1 sequence (looked up): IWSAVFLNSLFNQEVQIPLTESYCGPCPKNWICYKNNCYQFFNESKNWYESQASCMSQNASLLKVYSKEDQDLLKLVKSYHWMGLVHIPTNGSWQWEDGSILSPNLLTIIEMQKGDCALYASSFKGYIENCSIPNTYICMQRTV

mFc-hNKG2D [1] = molecular target: T2, mFc-hNKG2D (human, UniProt P26718 73-216); experiment: SPR Biacore 8K 37 C; mFc-hNKG2D captured on anti-mFc chip, TriNKET as analyte; 1:1 kinetic fit; average of 4
T2 construct: extracellular domain; Made in house (Dragonfly Tx); the order of tag and ECD follows the name mFc-hNKG2D; also called mFc-tagged human NKG2D; not shown: mouse Fc tag
T2 sequence (looked up): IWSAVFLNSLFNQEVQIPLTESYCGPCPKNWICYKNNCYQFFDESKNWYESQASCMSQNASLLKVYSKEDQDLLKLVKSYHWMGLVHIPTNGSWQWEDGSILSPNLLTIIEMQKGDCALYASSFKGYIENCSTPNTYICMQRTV

Human CLEC12A-His = molecular target: T3, Human CLEC12A-His (human, UniProt Q5QGZ9 65-265); experiment: SPR Biacore 8K 37 C; TriNKET captured on anti-hFc chip, hCLEC12A-His as analyte; 1:1 fit; after 4 wks 25 C in CST pH 7.0, n=2
T3 construct: Recombinant soluble protein made in house (Dragonfly Tx); The hCLEC12A spot of the HuProt array is written under this molecule as well; also called hCLEC12A-His; hCLEC12A; not shown: His tag
T3 sequence: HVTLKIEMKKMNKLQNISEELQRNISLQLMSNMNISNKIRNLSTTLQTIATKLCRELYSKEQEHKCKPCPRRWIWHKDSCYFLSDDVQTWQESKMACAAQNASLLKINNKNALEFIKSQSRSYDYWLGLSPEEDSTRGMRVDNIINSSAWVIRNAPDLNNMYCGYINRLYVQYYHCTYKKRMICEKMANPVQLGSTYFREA

mFc-hNKG2D [2] = molecular target: T2, mFc-hNKG2D; experiment: SPR Biacore 8K 37 C; mFc-hNKG2D captured on anti-mFc chip, TriNKET as analyte; steady state fit; after 4 wks 40 C in HST pH 6.0
[3] = molecular target: T4, recombinant human CLEC12A-His (human, UniProt Q5QGZ9 65-265); experiment: SPR 37C, average
T4 construct: also called hCLEC12A-His; hCLEC12A
T4 sequence: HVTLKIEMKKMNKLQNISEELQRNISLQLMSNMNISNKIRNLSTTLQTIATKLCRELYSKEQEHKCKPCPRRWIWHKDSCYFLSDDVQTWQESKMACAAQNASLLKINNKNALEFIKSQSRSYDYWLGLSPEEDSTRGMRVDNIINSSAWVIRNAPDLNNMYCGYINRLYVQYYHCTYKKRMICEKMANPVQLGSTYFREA

[4] = molecular target: T5, human CLEC12A expressed on cells (human, UniProt Q5QGZ9 1-265); experiment: flow cytometry, HL-60
T5 construct: Transduced isogenic cells or endogenous expression on AML cells; also called RMA-hCLEC12A; Ba/F3-hCLEC12A
T5 sequence: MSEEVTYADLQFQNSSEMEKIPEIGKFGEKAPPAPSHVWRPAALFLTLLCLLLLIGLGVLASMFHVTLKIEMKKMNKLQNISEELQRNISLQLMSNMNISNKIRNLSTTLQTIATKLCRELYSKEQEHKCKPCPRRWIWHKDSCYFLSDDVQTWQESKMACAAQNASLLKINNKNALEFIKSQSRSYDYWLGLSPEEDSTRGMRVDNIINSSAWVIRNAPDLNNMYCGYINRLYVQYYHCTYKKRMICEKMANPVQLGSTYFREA

Human CD16a F158 = molecular target: T6, Human CD16a F158 (human, UniProt P08637 17-208, biotinylated); experiment: SPR, steady state fit; average for AB0192
T6 construct: Bought recombinant receptor; also called hFcγRIIIa F158
T6 sequence (P08637 17-208 limits assumed): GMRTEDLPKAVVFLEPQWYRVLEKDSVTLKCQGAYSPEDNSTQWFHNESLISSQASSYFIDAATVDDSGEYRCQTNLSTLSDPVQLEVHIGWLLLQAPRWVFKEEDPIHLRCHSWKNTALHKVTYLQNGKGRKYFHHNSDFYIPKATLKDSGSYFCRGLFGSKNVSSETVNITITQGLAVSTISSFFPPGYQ

Cynomolgus CD16 = molecular target: T7, Cynomolgus CD16 (cynomolgus monkey, UniProt Q8SPW2 17-208, biotinylated); experiment: SPR, steady state fit; average for AB0192
T7 construct: Bought recombinant receptor; also called cFcγRIII; Cynomolgus FcγRIII
T7 sequence (Q8SPW2 17-208 limits assumed): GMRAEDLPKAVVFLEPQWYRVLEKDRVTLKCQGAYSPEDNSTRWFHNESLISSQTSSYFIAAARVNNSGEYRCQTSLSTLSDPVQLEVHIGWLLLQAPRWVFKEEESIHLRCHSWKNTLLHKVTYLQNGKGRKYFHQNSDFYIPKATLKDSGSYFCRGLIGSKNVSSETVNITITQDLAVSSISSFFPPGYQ

[5] = molecular target: T8, human CLEC12A on cells (HL60, PL21, Ba/F3-hCLEC12A) (human, UniProt Q5QGZ9 1-265); experiment: flow cytometry, 40 nM, MFI after 2 h 37 C relative to 2 h on ice, PL21 cells
T8 construct: Endogenous on the AML lines HL60 and PL21; brought into mouse Ba/F3 cells by retroviral transduction; The cell line stands under assay; also called CLL-1
T8 sequence: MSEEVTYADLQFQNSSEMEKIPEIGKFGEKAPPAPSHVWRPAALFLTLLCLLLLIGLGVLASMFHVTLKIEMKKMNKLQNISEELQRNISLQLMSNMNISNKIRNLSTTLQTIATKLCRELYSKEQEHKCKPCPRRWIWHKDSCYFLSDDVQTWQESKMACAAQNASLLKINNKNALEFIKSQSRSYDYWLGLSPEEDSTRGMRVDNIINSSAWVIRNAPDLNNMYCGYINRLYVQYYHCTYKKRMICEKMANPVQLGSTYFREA

B1: F3'-1602 TriNKET (bispecific antibody, human IgG1, kappa)
chain: QLQLQESGPGLVKPSETLSLTCTVSGFSLTNYGLHWIRQPPGKCLEWIGVIWSGGKTDYNPSLKSRVTISKDTSKNQFSLKLSSVQAADTAVYYCAKYDYDDSLDYWGQGTLVTVSSGGGGSGGGGSGGGGSGGGGSDIQMTQSPSSLSASVGDRVTITCHASQNINFWLSWYQQKPGKAPKLLIYEASNLHTGVPSRFSGSGSGTRFTLTISSLQPEDIATYYCQQSHSYPLTFGCGTKLEIKGSDKTHTCPPCPAPELLGGPSVFLFPPKPKDTLMISRTPEVTCVVVDVSHEDPEVKFNWYVDGVEVHNAKTKPREEQYNSTYRVVSVLTVLHQDWLNGKEYKCKVSNKALPAPIEKTISKAKGQPREPRVYTLPPCRDELTKNQVSLTCLVKGFYPSDIAVEWESNGQPENNYKTTPPVLVSDGSFTLYSKLTVDKSRWQQGNVFSCSVMHEALHNHYTQKSLSLSPG
heavy: EVQLVESGGGLVKPGGSLRLSCAASGFTFSSYSMNWVRQAPGKGLEWVSSISSSSSYIYYADSVKGRFTISRDNAKNSLYLQMNSLRAEDTAVYYCARGAPIGAAAGWFDPWGQGTLVTVSSASTKGPSVFPLAPSSKSTSGGTAALGCLVKDYFPEPVTVSWNSGALTSGVHTFPAVLQSSGLYSLSSVVTVPSSSLGTQTYICNVNHKPSNTKVDKKVEPKSCDKTHTCPPCPAPELLGGPSVFLFPPKPKDTLMISRTPEVTCVVVDVSHEDPEVKFNWYVDGVEVHNAKTKPREEQYNSTYRVVSVLTVLHQDWLNGKEYKCKVSNKALPAPIEKTISKAKGQPREPQVCTLPPSRDELTENQVSLTCLVKGFYPSDIAVEWESNGQPENNYKTTPPVLDSDGSFFLYSWLTVDKSRWQQGNVFSCSVMHEALHNHYTQKSLSLSPG
light: DIQMTQSPSSVSASVGDRVTITCRASQGISSWLAWYQQKPGKAPKLLIYAASSLQSGVPSRFSGSGSGTDFTLTISSLQPEDFATYYCQQGVSFPRTFGGGTKVEIKRTVAAPSVFIFPPSDEQLKSGTASVVCLLNNFYPREAKVQWKVDNALQSGNSQESVTEQDSKDSTYSLSSTLTLSKADYEKHKVYACEVTHQGLSSPVTKSFNRGEC
notes: Trispecific F3' format: CLEC12A scFv-Fc paired with NKG2D Fab-Fc; Stressed and control samples of the stability studies are the same molecule; also called AB0237
mFc-cNKG2D
  koff: 0.147 s⁻¹ and 0.136 s⁻¹ and 0.145 s⁻¹ and 0.135 s⁻¹
  kon: 177000 M⁻¹ s⁻¹ and 164000 M⁻¹ s⁻¹ and 156000 M⁻¹ s⁻¹ and 176000 M⁻¹ s⁻¹
mFc-hNKG2D [1]
  koff: 0.13 s⁻¹
  kon: 180000 M⁻¹ s⁻¹
Human CLEC12A-His
  Kd: 0.00091 µM
  koff: 0.000719 s⁻¹
  kon: 788000 M⁻¹ s⁻¹
mFc-hNKG2D [2]
  Kd: 0.776 µM

B2: F3'-1602 TriNKET (other)
chain: QLQLQESGPGLVKPSETLSLTCTVSGFSLTNYGLHWIRQPPGKCLEWIGVIWSGGKTDYNPSLKSRVTISKDTSKNQFSLKLSSVQAADTAVYYCAKYDYDDSLDYWGQGTLVTVSSGGGGSGGGGSGGGGSGGGGSDIQMTQSPSSLSASVGDRVTITCHASQNINFWLSWYQQKPGKAPKLLIYEASNLHTGVPSRFSGSGSGTRFTLTISSLQPEDIATYYCQQSHSYPLTFGCGTKLEIKGSDKTHTCPPCPAPELLGGPSVFLFPPKPKDTLMISRTPEVTCVVVDVSHEDPEVKFNWYVDGVEVHNAKTKPREEQYNSTYRVVSVLTVLHQDWLNGKEYKCKVSNKALPAPIEKTISKAKGQPREPRVYTLPPCRDELTKNQVSLTCLVKGFYPSDIAVEWESNGQPENNYKTTPPVLVSDGSFTLYSKLTVDKSRWQQGNVFSCSVMHEALHNHYTQKSLSLSPG
heavy: EVQLVESGGGLVKPGGSLRLSCAASGFTFSSYSMNWVRQAPGKGLEWVSSISSSSSYIYYADSVKGRFTISRDNAKNSLYLQMNSLRAEDTAVYYCARGAPIGAAAGWFDPWGQGTLVTVSSASTKGPSVFPLAPSSKSTSGGTAALGCLVKDYFPEPVTVSWNSGALTSGVHTFPAVLQSSGLYSLSSVVTVPSSSLGTQTYICNVNHKPSNTKVDKKVEPKSCDKTHTCPPCPAPELLGGPSVFLFPPKPKDTLMISRTPEVTCVVVDVSHEDPEVKFNWYVDGVEVHNAKTKPREEQYNSTYRVVSVLTVLHQDWLNGKEYKCKVSNKALPAPIEKTISKAKGQPREPQVCTLPPSRDELTENQVSLTCLVKGFYPSDIAVEWESNGQPENNYKTTPPVLDSDGSFFLYSWLTVDKSRWQQGNVFSCSVMHEALHNHYTQKSLSLSPG
light: DIQMTQSPSSVSASVGDRVTITCRASQGISSWLAWYQQKPGKAPKLLIYAASSLQSGVPSRFSGSGSGTDFTLTISSLQPEDFATYYCQQGVSFPRTFGGGTKVEIKRTVAAPSVFIFPPSDEQLKSGTASVVCLLNNFYPREAKVQWKVDNALQSGNSQESVTEQDSKDSTYSLSSTLTLSKADYEKHKVYACEVTHQGLSSPVTKSFNRGEC
notes: CLEC12A scFv-Fc, NKG2D A49MI Fab-Fc, human IgG1 Fc; also called AB0237
[3]
  Kd: 0.00057 µM
  koff: 0.000494 s⁻¹
  kon: 844000 M⁻¹ s⁻¹
[4]
  fold lower EC50 than AB0010: ~2 fold

B3: AB0192 TriNKET (other)
chain: EVQLVESGGGVVQPGGSLRLSCAASGFTFNAFGMHWVRQAPGKCLEWVAFISSGSTSIYYANTVKGRFTISRDNSKNTLYLQMNSLRAEDTAVYYCARDGYPTGGAMDYWGQGTSVTVSSGGGGSGGGGSGGGGSGGGGSDIQMTQSPSSLSASVGDRVTITCKASQDIYNYLSWFQQKPGKAPKPLIYRANILVSGVPSRFSGSGSGQDYTFTISSLQPEDIATYYCLQFDAFPFTFGCGTKLEIKGSDKTHTCPPCPAPELLGGPSVFLFPPKPKDTLMISRTPEVTCVVVDVSHEDPEVKFNWYVDGVEVHNAKTKPREEQYNSTYRVVSVLTVLHQDWLNGKEYKCKVSNKALPAPIEKTISKAKGQPREPRVYTLPPCRDELTKNQVSLTCLVKGFYPSDIAVEWESNGQPENNYKTTPPVLVSDGSFTLYSKLTVDKSRWQQGNVFSCSVMHEALHNHYTQKSLSLSPG
heavy: EVQLVESGGGLVKPGGSLRLSCAASGFTFSSYSMNWVRQAPGKGLEWVSSISSSSSYIYYADSVKGRFTISRDNAKNSLYLQMNSLRAEDTAVYYCARGAPIGAAAGWFDPWGQGTLVTVSSASTKGPSVFPLAPSSKSTSGGTAALGCLVKDYFPEPVTVSWNSGALTSGVHTFPAVLQSSGLYSLSSVVTVPSSSLGTQTYICNVNHKPSNTKVDKKVEPKSCDKTHTCPPCPAPELLGGPSVFLFPPKPKDTLMISRTPEVTCVVVDVSHEDPEVKFNWYVDGVEVHNAKTKPREEQYNSTYRVVSVLTVLHQDWLNGKEYKCKVSNKALPAPIEKTISKAKGQPREPQVCTLPPSRDELTENQVSLTCLVKGFYPSDIAVEWESNGQPENNYKTTPPVLDSDGSFFLYSWLTVDKSRWQQGNVFSCSVMHEALHNHYTQKSLSLSPG
light: DIQMTQSPSSVSASVGDRVTITCRASQGISSWLAWYQQKPGKAPKLLIYAASSLQSGVPSRFSGSGSGTDFTLTISSLQPEDFATYYCQQGVSFPRTFGGGTKVEIKRTVAAPSVFIFPPSDEQLKSGTASVVCLLNNFYPREAKVQWKVDNALQSGNSQESVTEQDSKDSTYSLSSTLTLSKADYEKHKVYACEVTHQGLSSPVTKSFNRGEC
notes: the condition stands under assay; also called AB0192 Lot AB0192-005
Human CD16a F158
  Kd: 0.68 µM
Cynomolgus CD16
  Kd: 0.204 µM
[5]
  percent surface retention: 101%
